US20250388672A1 (Ablynx, published 2025)

B1: T017000056 (bispecific antibody)
chain: EVQLVESGGGLVQPGGSLRLSCTFSGGTFSSYTMGWFRQAPGKEREFVAEVRWGGVTTYSNSLKDRFSISEDSVKNAVYLQMNSLKPEDTAVYYCAAVRQMYMTVVPDYWGQGTLVTVSSGGGGSGGGGSGGGGSGGGGSGGGGSGGGGSGGGGSEVQLVESGGGAVQPGGSLRLSCAASGIRISRNMMGWFRQAPGKQRDLVARITPGGDTYYVDSVKGRFSISKDNAKNTVYLQMNSLKPEDTAVYYCNSYSTLGSWGQGTLVTVSSGAADYKDHDGDYKDHDIDYKDDDDKGAAHHHHHH
B2: T017000057 (bispecific antibody)
chain: EVQLVESGGGLVQPGGSLRLSCTFSGGTFSSYTMGWFRQAPGKEREFVAEVRWGGVTTYSNSLKDRFSISEDSVKNAVYLQMNSLKPEDTAVYYCAAVRQMYMTVVPDYWGQGTLVTVSSGGGGSGGGGSGGGGSGGGGSGGGGSGGGGSGGGGSEVQLVESGGGLVQAGGSLRLSCAASGRSFNMNPLGWFRQSPGKEREFVAAHRWSDGNTYYVDSVKGRFTISRDNAKNTVYLQMNSLKSEDTAVYYCAAGRPWSAFRSPGEYVYWGQGTLVTVSSGAADYKDHDGDYKDHDIDYKDDDDKGAAHHHHHH
B3: T017000045 (bispecific antibody)
chain: EVQLVESGGGSVQAGGSLRLSCAASGRTFSTNPMGWFRQVPGKERELIAAVRWADGNTFYADSVKGRFTISRDNAKKTVYLQMNSLKSEDTATYYCAAGRPWSAYHSPAEYVHWGQGTLVTVSSGGGGSGGGGSGGGGSGGGGSGGGGSGGGGSGGGGSEVQLVESGGGLVQPGGSLRLSCTFSGGTFSSYTMGWFRQAPGKEREFVAEVRWGGVTTYSNSLKDRFSISEDSVKNAVYLQMNSLKPEDTAVYYCAAVRQMYMTVVPDYWGQGTLVTVSSGAADYKDHDGDYKDHDIDYKDDDDKGAAHHHHHH
B4: T017000061 (bispecific antibody)
chain: EVQLVESGGGLVQPGGSLRLSCTFSGGTFSSYTMGWFRQAPGKEREFVAEVRWGGVTTYSNSLKDRFSISEDSVKNAVYLQMNSLKPEDTAVYYCAAVRQMYMTVVPDYWGQGTLVTVSSGGGGSGGGGSGGGGSGGGGSGGGGSGGGGSGGGGSEVQLVESGGGLVQGGGSLSLSCAASGRTFSSYAMAWFRQPPGKEREFVASISWSGENTNYRNSVKGRFTISRDNAKNTVYLQMNSLKPEDTAVYYCAAKIAKTYPDNWYWTKSNNYNYWGQGTLVTVSSGAADYKDHDGDYKDHDIDYKDDDDKGAAHHHHHH
B5: T017000040 (bispecific antibody)
chain: EVQLVESGGGLVQPGGSLRLSCAASGDIYKSFDMGWYRQAPGKQRDLVAVIGSRGNNRGRTNYADSVKGRFTISRDGTGNTVYLLMNKLRPEDTAIYYCNTAPLVAGRPWGRGTLVTVSSGGGGSGGGGSGGGGSGGGGSGGGGSGGGGSGGGGSEVQLVESGGGLVQPGGSLRLSCTFSGGTFSSYTMGWFRQAPGKEREFVAEVRWGGVTTYSNSLKDRFSISEDSVKNAVYLQMNSLKPEDTAVYYCAAVRQMYMTVVPDYWGQGTLVTVSSGAADYKDHDGDYKDHDIDYKDDDDKGAAHHHHHH
notes: Bispecific Nanobody construct with tags, expressed in Pichia; also called T0170060E11-35GS-20CD019C07-FLAG3-HIS6; CD3xCD20 (cluster B)
B6: T017000021 (bispecific antibody)
chain: B3 chain
notes: Bispecific Nanobody construct with tags, expressed in Pichia; also called T0170033G03-35GS-20CD019C07-FLAG3-HIS6; CD3xCD20 (cluster C)

These binders were tested against T1, human CD20 (human, UniProt P11836 1-297) (assay: cell-based or functional assay).
T1 sequence (looked up): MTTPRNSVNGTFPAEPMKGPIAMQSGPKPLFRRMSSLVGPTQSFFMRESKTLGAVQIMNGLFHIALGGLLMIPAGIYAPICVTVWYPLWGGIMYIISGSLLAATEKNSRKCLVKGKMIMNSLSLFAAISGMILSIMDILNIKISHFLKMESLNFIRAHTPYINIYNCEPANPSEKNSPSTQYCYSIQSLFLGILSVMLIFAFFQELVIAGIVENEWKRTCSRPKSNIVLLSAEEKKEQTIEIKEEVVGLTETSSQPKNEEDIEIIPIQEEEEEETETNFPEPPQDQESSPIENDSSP

Binder	% lysis (% dead cells at 500 nM Nanobody minus no Nanobody control), Ramos killing assay, E:T 10:1 [%]	Average IC50 (M), flow cytometry based primary human T cell mediated Ramos killing assay, E:T 10:1 [M]
B1	4	1.5e-08
B2	3	1.4e-09
B3	0	–
B4	13	2.9e-08
B5	29	6.8e-09

Each binder was assayed against T1, human CD20 (assay: flow cytometry on human CD20 positive Ramos cells).

Binder	EC50 [nM]
B6	4.7
B5	32

Molecular target: T1, human CD20
Assay: cell-based or functional assay
Remark: another data set of the same source

Binder	Average IC50 (M), xCELLigence based human T cell mediated CHO-K1 CD20 killing assay, E:T 30:1, 44 h [M]
B6	1.52e-10
B5	4.89e-10
